# T1: low molecular weight (LMW) polypeptide component of the oxido reductase system of Penicillium chrysogenum (Penicillium chrysogenum)
# T1 sequence: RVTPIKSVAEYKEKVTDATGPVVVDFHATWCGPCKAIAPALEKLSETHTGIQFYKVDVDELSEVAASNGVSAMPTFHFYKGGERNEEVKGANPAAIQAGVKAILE
# B1: low molecular weight (LMW) polypeptide component of the oxido reductase system of Penicillium chrysogenum (protein)
# chain: T1 sequence
# B2: high molecular weight (HMW) polypeptide component of the oxido reductase system of Penicillium chrysogenum (enzyme)
# chain: VHSKVVIIGSGPGAHTAAIYLSRAELQPVLYEGMLANGTAAGGQLTTTTDVENFPGFPSGIGGAELMDNMRAQSERFGTEIITETISKLDLSSRPFKMWTEWNDDEGSEPVRTADAVIIATGANARRLNLPGEETYWQNGISACAVCDGAVPIFRNKPLYVIGGGDSAAEEAMFLAKYGSSVTVLVRKDKLRASNIMADRLLAHPKCKVRFNTVATEVIGENKPNGLMTHLRVKDVLSNAEEVVEANGLFYAVGHDPASGLVKGQVELDDEGYIITKPGTSFTNVEGVFACGDVQDKRYRQAITSAGSGCVAALEAEKFIAETETHQEAKPVL
# B3: oxido reductase enzyme system of Penicillium chrysogenum (HMW and LMW components together, with NADPH) (enzyme)
# chain 1: B2 chain
# chain 2: T1 sequence
# Assays:
# [1] = molecular target: δ-(L-α-aminoadipyl)-L-cysteinyl-D-valine (ACV) synthetase purified from Acremonium chrysogenum C10 (ATCC 48272) (Acremonium chrysogenum) (UniProt P25464)
# [2] = molecular target: thioredoxin obtained from Spirulina platensis (Spirulina platensis)
# [3] = molecular target: T1, low molecular weight (LMW) polypeptide component of the oxido reductase system of Penicillium chrysogenum (Penicillium chrysogenum)
# [4] = molecular target: T1, low molecular weight (LMW) polypeptide component of the oxido reductase system of Penicillium chrysogenum (Penicillium chrysogenum); remark: listed apart in the source
# [5] = molecular target: thioredoxin obtained from Spirulina platensis (Spirulina platensis); remark: listed apart in the source
# [6] = molecular target: T1, low molecular weight (LMW) polypeptide component of the oxido reductase system of Penicillium chrysogenum (Penicillium chrysogenum); remark: listed apart in the source
# [7] = molecular target: insulin
binder,measurement,setting,value
B1,ACVS activity: dpm of labelled ACV produced from [14C]valine,[1],509 dpm
B2,bis-ACV reductase activity: µmol NADPH oxidized per minute (340 nm) (µmol NADPH/minute),[2],1.93
same,bis-ACV reductase activity: µmol NADPH oxidized per minute (340 nm) (µmol NADPH/minute),[3],2.25
same,production of isopenicillin N from bis-ACV by IPNS under non-reducing conditions: antibiotic µg/ml by bioassay on Micrococcus luteus,[4],72 µg/mL
same,DTNB reductase activity: increase of absorbance at 412 nm after 15 minutes (absorbance at 412 nm),[5],0.08
same,DTNB reductase activity: increase of absorbance at 412 nm after 15 minutes (absorbance at 412 nm),[6],0.225
B3,KM for reduction of the protein disulphide in insulin,[7],2300 µM

# — US5753435
